The target in test [1] is growth differentiation factor 5 (GDF5), wild type (UniProt P43026). The test is described as follows: SPR; ProteOn XPR36; BMP2 (570 RU), GDF5 (470 RU), TGF-β2 (300 RU) or activin A (350 RU) amine-coupled to a GLC sensor chip; analyte perfused (RGMB 50 to 1.56 nM at 150 or 100 µl/min; BMPR1A 1000 to 31.25 nM at 100 µl/min); 20 mM HEPES pH 7.4, 500 mM NaCl, 3.4 mM EDTA, 0.005% (v/v) Tween 20; 25 °C; Langmuir 1:1 kinetic fit (parameters local for RGMB), Kd = koff/kon; apparent. (Surface plasmon resonance follows binding to a sensor surface in real time, without labels.)
Target sequence in this assay (P43026 28-501): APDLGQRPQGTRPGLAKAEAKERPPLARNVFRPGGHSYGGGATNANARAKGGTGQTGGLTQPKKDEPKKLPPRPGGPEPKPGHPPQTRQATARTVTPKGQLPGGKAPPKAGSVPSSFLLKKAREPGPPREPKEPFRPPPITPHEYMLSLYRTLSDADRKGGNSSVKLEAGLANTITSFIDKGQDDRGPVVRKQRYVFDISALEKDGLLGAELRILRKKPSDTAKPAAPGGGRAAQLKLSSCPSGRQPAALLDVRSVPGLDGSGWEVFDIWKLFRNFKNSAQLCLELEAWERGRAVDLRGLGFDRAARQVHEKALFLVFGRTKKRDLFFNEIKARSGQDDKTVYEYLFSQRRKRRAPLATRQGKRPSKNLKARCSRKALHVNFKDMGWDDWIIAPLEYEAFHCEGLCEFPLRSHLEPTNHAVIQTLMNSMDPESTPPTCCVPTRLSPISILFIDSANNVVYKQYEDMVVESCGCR

For test [2] the target is unchanged. The test is described as follows: SPR; ProteOn XPR36, 25 °C; BMP/TGF-β ligands immobilized on GLC chips by amine coupling, RGM proteins as analytes; 10 mM Hepes pH 7.4, 500 mM NaCl, 3.4 mM EDTA, 0.005% Tween20; 1:1 Langmuir kinetic fit, Kd = koff/kon; apparent Kd.
Target sequence in this assay (P43026 382-501): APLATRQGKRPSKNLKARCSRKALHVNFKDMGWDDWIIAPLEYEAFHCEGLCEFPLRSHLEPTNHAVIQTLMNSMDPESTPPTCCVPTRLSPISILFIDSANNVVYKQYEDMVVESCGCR
The target of test [3] is bone morphogenetic protein 2 (BMP2) (UniProt P12643). The test is described as above.
Chain of bone morphogenetic protein 2 (BMP2) (P12643 283-396): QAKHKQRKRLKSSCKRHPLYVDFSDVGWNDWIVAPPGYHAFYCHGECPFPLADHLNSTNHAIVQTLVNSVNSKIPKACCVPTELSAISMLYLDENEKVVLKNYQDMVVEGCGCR
For test [4] the target is unchanged.
Test [5] deals with growth differentiation factor 5 (GDF5), wild type (UniProt P43026).
Target sequence in this assay (P43026 382-501): as the sequence (P43026 382-501) above
Test [6] shares this target. The test is described as follows: SPR; Biacore T200, 25 °C; GDF5 amine-coupled to a CM5 chip (830, 970 or 1370 RU); RGMBND variants or BSA as analytes; 0.5 M NaCl, 20 mM HEPES pH 7.4, 0.05% (v/v) Tween 20; Kd from the dose-dependency of equilibrium binding, 1:1 Langmuir isotherm.
Target sequence in this assay (P43026 28-501): as the sequence (P43026 28-501) above
Test [7] has the same target. The test is described as follows: SPR; ProteOn XPR36; BMP2 (570 RU) or GDF5 (470 RU) amine-coupled to a GLC sensor chip; ActR2b ectodomain perfused at 6 µM to 187.5 nM, 100 µl/min; 0.005% (v/v) Tween 20 buffer; Kd from the dose-dependency of equilibrium binding, one-site model; apparent.
Target sequence in this assay (P43026 28-501): as above
For test [8] the target is unchanged. The test is described as follows: SPR; BMPR1A with BMP2, GDF5 and GDF5 variants; set-up not told for this pair in the main text (values in the discussion, SI Appendix Table S1); taken as the ProteOn set-up with immobilized ligands.
Target sequence in this assay (P43026 382-501): as the sequence (P43026 382-501) above
Test [9] deals with bone morphogenetic protein 2 (BMP2) (UniProt P12643). The test is described as follows: SPR.

Chain of BMPR1A ectodomain protein (residues Gln24 to Arg152) (P36894 24-152): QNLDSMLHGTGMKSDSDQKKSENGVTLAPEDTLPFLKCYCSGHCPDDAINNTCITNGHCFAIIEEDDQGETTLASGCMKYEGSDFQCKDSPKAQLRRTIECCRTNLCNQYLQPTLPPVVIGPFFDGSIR
Chain of murine activin type-2 receptor ActR2b, soluble ectodomain (residues Gly20 to Glu127) (P27040 20-127): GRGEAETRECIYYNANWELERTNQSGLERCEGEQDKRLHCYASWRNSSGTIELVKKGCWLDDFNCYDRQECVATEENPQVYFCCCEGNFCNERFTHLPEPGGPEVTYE

Take “BMPR1A ectodomain protein (residues Gln24 to Arg152) (from UniProt P36894 24-152) (receptor)”: in test [1], the koff turned out to be 0.0048 s⁻¹ and the kon came out at 90000 M⁻¹ s⁻¹.
Take “soluble RGMB extracellular domain (RGMBECD) for the ProteOn SPR studies (from UniProt Q6NW40 46-413) (domain or fragment)”: the Kd turned out to be 2.7 nM in test [2] and 4.2 nM in test [3].
In test [4], “extracellular domain of human RGMB (RGMBECD, Gln53–Ser411) (domain or fragment)” returned a BMP2 (3 nM) BMP-responsive luciferase reporter in LLC-PK1 cells expressing full-length membrane-anchored RGMB of 3 fold.
With “soluble RGMC extracellular domain (RGMCECD) for the ProteOn SPR studies (from UniProt Q6ZVN8 36-400) (domain or fragment)”, the GDF5 (30 nM) BMP-responsive luciferase reporter in LLC-PK1 cells expressing full-length membrane-anchored RGMC in test [5] is 2 fold.
As to RGMBND His106Arg (domain or fragment), the Kd in test [6] was over 200000 nM.
Turning to “soluble RGMA extracellular domain (RGMAECD) for the ProteOn SPR studies (from UniProt Q96B86 48-424) (domain or fragment)”, the GDF5 (30 nM) BMP-responsive luciferase reporter in LLC-PK1 cells expressing full-length membrane-anchored RGMA in test [5] was determined as 2 fold.
Regarding “murine activin type-2 receptor ActR2b, soluble ectodomain (residues Gly20 to Glu127) (from UniProt P27040 20-127)”, the Kd in test [7] was 1300 nM.
As to “BMPR1A extracellular domain (BMPR1AECD, Thr55–Val141) (receptor)”, the values for the Kd in [8] and in test [9] were 125 nM and 59 nM, respectively.

As a reminder, the koff is a measure of how fast the partners let go of each other. As a reminder, the kon is a measure of how fast the partners come together.

The record behind these values is publication PMC7354924.
